{
  "source": "paper PMC8352894",
  "about": "“A KLK4 proteinase substrate capture approach to antagonize PAR1” (Scientific Reports, 2021)",
  "binders": {"B1": {"name": "biotinylated PAR1 peptide (biotin-31SKATNATLDPRSFLLRNPNDKYEPFWED58-FITC) (peptide)", "peptide": "Biotin-SKATNATLDPRSFLLRNPNDKYEPFWED-{FITC′}", "notes": "also called PAR1 extracellular peptide; source: synthetic peptide, bought: Peptron, Daejeon, Korea (>95%)"}},
  "key": {"KLK4_(S207A,L185D)": {"molecular_target": "T1, KLK4_(S207A,L185D) (human, UniProt Q9Y5K2 31-254, S207A | L185D)", "T1 construct": "Kallikrein-related peptidase 4 (KLK4), human, UniProtKB Q9Y5K2; peptidase domain left after thermolysin removed the pro-peptide S27CSQ30 (begins at residue 31); L185D chosen by in-silico saturation mutagenesis; also called KLK4_(L185D,S207A); KLK_(S207,L185D); not shown: FLAG, N-terminal, cleaved", "T1 sequence (Q9Y5K2 31-254 L185D/S207A)": "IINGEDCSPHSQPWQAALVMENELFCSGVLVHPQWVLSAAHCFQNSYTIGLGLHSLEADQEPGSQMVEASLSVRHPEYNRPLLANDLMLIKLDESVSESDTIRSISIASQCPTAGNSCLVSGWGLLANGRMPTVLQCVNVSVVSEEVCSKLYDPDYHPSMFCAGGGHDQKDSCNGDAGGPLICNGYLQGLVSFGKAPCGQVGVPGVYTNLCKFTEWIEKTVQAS", "assay": "SPR; ProteOn XPR36; biotinylated PAR1 peptide immobilised on an NLC chip via NeutrAvidin-biotin (2600 RU); KLK4 variants flowed over in PBST at 30 µL/min for 818 s, dissociation 30 min (166 min for KLK4 S207A,L185D); 25 °C; empty channel subtracted; 1:1 Langmuir kinetic model", "details": "both partners purified"}, "KLK4_(S207A)": {"molecular_target": "T2, KLK4_(S207A) (human, UniProt Q9Y5K2 31-254, S207A)", "T2 construct": "Kallikrein-related peptidase 4 (KLK4), human, UniProtKB Q9Y5K2; peptidase domain left after thermolysin removed the pro-peptide S27CSQ30 (begins at residue 31); S207 is Ser195 in chymotrypsin numbering; also called KLK_(S207); not shown: FLAG, N-terminal, cleaved", "T2 sequence (Q9Y5K2 31-254 S207A)": "as the sequence (Q9Y5K2 31-254 L185D/S207A) above, with D155L counted along it", "assay": "SPR; ProteOn XPR36; biotinylated PAR1 peptide immobilised on an NLC chip via NeutrAvidin-biotin (2600 RU); KLK4 variants flowed over in PBST at 30 µL/min for 818 s, dissociation 30 min (166 min for KLK4 S207A,L185D); 25 °C; empty channel subtracted; 1:1 Langmuir kinetic model", "details": "both partners purified"}},
  "note": "Primed or numbered codes have the meaning given here. The star is where a group is joined. Biotin = O=C1N[C@H]2[C@H](CS[C@H]2CCCCC(=O)*)N1; FITC′ = not defined here",
  "data": [
    {"binder": "B1", "values": [
      {"measurement": "Kd", "setting": "KLK4_(S207A,L185D)", "result": 55.5, "unit": "nM"},
      {"measurement": "koff", "setting": "KLK4_(S207A,L185D)", "result": "3.17e-06", "unit": "s⁻¹"},
      {"measurement": "kon", "setting": "KLK4_(S207A,L185D)", "result": 57, "unit": "M⁻¹ s⁻¹"},
      {"measurement": "Kd", "setting": "KLK4_(S207A)", "result": 1120, "unit": "nM"},
      {"measurement": "koff", "setting": "KLK4_(S207A)", "result": 0.000391, "unit": "s⁻¹"},
      {"measurement": "kon", "setting": "KLK4_(S207A)", "result": 349, "unit": "M⁻¹ s⁻¹"}
    ]}
  ]
}
